We go through one substance from patent US20090176209A1.

In this test the target is scArc-Vκ(E5)-HA fusion protein (Vκ(E5) fused to the C-terminus of scArc; pIE3AVκ(E5) series constructs) (phage P22). Description: emulsion expression of the pIE3a^4AVκ(E5)-derived template; capture on 3F10-coated PCR tubes; quantitative PCR.

Bounds are passed on as bounds.

As for “αHA rat mAb 3F10 (Roche), High Affinity anti-HA monoclonal antibody”, the percent of the total input genetic element DNA recovered in complex with the fusion protein on the mAb-coated surface was more than 23%.
